{
  "source": "paper doi:10.1101/2021.11.08.467404",
  "key": {"[1]": {"molecular_target": "microtubules polymerised from porcine brain tubulin (porcine) (UniProt P02550)", "sequence (P02550 whole entry)": "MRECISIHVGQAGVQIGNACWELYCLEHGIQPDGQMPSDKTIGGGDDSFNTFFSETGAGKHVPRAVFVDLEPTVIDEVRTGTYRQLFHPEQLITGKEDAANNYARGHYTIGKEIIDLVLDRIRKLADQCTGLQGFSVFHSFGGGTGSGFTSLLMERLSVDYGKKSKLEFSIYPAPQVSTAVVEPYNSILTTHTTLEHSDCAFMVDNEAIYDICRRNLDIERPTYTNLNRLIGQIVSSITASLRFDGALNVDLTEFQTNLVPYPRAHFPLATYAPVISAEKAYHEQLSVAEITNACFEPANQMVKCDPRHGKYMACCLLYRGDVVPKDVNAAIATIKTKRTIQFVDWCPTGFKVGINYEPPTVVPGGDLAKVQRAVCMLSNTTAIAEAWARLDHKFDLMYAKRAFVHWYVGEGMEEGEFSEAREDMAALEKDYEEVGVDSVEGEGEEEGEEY", "assay": "FRAP of fluorescent protein on immobilised microtubules"}, "[2]": {"molecular_target": "microtubules polymerised from porcine brain tubulin (porcine) (UniProt P02550)", "assay": "single-molecule TIRF microscopy on immobilised microtubules"}, "[3]": {"molecular_target": "microtubules polymerised from porcine brain tubulin (porcine) (UniProt P02550)", "assay": "TIRF microscopy of fluorescent protein on immobilised microtubules"}},
  "data": [
    {"substance": "GFP-MAP2c (natural protein)", "values": [
      {"measurement": "fold turnover (FRAP) outside against inside envelopes", "setting": "[1]", "result": 4, "unit": "fold"}
    ]},
    {"substance": "TMR-MAP2c (natural protein)", "values": [
      {"measurement": "fold increase of dwell time inside GFP-MAP2c envelopes against outside", "setting": "[2]", "result": 3, "unit": "fold"}
    ]},
    {"substance": "TMR-MAP4 (full-length human MAP4, isoform 1) (from UniProt P27816 1-1152) (natural protein)", "values": [
      {"measurement": "fold dwell time of single molecules against MAP2c", "setting": "[2]", "result": 2, "unit": "fold"}
    ]},
    {"substance": "kinesin-1-GFP (from UniProt P33176 1-963) (natural protein)", "values": [
      {"measurement": "landing rate (with 600 nM tau-mCherry)", "setting": "[3]", "result": 0.23, "unit": "μm^-1s^-1"}
    ]}
  ]
}
